The record followed here is patent US20130034559A1 (AstraZeneca / MedImmune, published 2013).

The target of assay [1] is T1, recombinant monomeric human B7-H1 FlagHis10 extracellular domain (human, UniProt Q9NZQ7 19-238).
T1 construct: extracellular domain; also called HIS FLAG tagged human B7-H1; HIS FLAG tagged B7-H1; not shown: FlagHis10 tag
As to the kind of experiment: SPR (BIAcore T100), IgG captured via protein G, monomeric B7-H1 ECD as analyte, 25 °C, 1:1 model. The procedure: The binding affinity and kinetic parameters of anti-B7-H1 antibodies in the IgG1-TM format to monomeric human and cynomologus B7-H1 were determined by surface plasmon resonance using a BIAcore T100 instrument (BIAcore, Uppsala, Sweden). In brief, experiments were performed at 25° C. using HBS-EP buffer (10 mM HEPES, 150 mM NaCl, 3 mM EDTA, 0.05% v/v surfactant P20) as running buffer. IgGs were affinity captured on the surface of a CM5 sensor chip (BIAcore) via protein G, which was amine coupled onto the CM5 surface to achieve the density of ˜500 Response Units (RU), according to the manufacturer's instructions (BIAapplications Handbook, BIAcore). Recombinant monomeric human or cynomologus B7-H1 FlagHis₁₀ extracellular domains (ECDs) were used as analytes. […] All measurements were baseline corrected by subtracting the sensorgram obtained with the control (activated-deactivated) flow cell, as well as double referenced with blank (zero analyte concentration) injections. Data were analyzed using the T-100 BIAevaluation software package and fitted to a simple 1:1 Langmuir binding model with local Rₘₐₓ and bulk refractive index set to 0. Data were calculated from at least two independent experiments. Mass transport effects were limited by keeping the level of affinity-captured IgGs below 250 RU.
On the technique in general: Surface plasmon resonance follows binding to a sensor surface in real time, without labels.

In assay [2] the target is T2, extracellular domain of human CD28 (R&D Systems, 342-CD) (human, UniProt P10747 19-152).
T2 construct: extracellular domain; Bought
As to the kind of experiment: ELISA, biotinylated IgG1-TM on coated ECD. (An ELISA detects its analyte on a solid surface through an enzyme-linked reagent.)

Assay [3] deals with T3, extracellular domain of human CTLA-4 (R&D Systems, 325-CT) (human, UniProt P16410 36-161).
T3 construct: extracellular domain; Bought
T3 sequence (looked up): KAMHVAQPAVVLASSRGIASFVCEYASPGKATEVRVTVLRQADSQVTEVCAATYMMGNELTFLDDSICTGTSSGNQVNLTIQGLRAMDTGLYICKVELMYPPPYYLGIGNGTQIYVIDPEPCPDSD
As to the kind of experiment: ELISA, biotinylated IgG1-TM on coated ECD.

For assay [4], the target named is T4, human PD-1/Fc protein (R&D Systems, catalog #1086-PD) (human, UniProt Q15116 25-170).
T4 construct: extracellular domain; Bought; not shown: Fc portion
As to the kind of experiment: ELISA, biotinylated IgG1-TM on coated ECD.

The target of assay [5] is T5, extracellular domain of human PD-L2 (R&D Systems, 1224-PL) (human, UniProt Q9BQ51 20-220).
T5 construct: extracellular domain; Bought
T5 sequence (looked up): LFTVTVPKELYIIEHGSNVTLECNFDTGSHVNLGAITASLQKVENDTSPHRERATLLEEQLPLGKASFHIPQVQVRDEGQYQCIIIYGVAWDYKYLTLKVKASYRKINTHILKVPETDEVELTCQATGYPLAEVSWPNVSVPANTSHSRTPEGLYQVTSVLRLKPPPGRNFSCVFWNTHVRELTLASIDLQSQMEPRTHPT
As to the kind of experiment: ELISA, biotinylated IgG1-TM on coated ECD.

As usually defined, the Kd is the free concentration of one partner at which half of the binding sites on the other are occupied at equilibrium, for simple one-to-one binding. One may read the koff as a measure of how fast the partners let go of each other. By kon is commonly meant the rate constant with which the complex forms.

T1 sequence (Q9NZQ7 19-238): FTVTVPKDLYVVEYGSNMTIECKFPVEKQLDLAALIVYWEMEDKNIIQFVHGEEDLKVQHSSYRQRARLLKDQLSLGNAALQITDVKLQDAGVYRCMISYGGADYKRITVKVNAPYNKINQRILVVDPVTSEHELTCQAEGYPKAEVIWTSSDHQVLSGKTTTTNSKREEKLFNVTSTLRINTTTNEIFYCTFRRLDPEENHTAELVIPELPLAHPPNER
T4 sequence (Q15116 25-170): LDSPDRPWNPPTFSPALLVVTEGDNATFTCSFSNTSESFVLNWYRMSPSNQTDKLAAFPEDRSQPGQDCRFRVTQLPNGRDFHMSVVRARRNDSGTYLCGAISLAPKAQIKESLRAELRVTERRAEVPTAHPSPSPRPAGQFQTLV
T2 sequence (P10747 19-152): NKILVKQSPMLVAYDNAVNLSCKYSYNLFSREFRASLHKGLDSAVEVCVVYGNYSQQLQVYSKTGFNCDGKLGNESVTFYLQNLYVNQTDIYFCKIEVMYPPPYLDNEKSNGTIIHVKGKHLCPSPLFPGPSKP

B1: 2.7A4OPT (antibody, V domains shown)
VH: EVQLVESGGGLVKPGGSLRLSCAASGFTFSTYSMNWVRQAPGKGLEWVSSISSSGDYIYYADSVKGRFTISRDNAKNSLYLQMNSLRAEDTAVYYCARDLVTSMVAFDYWGQGTLVTVSS
VL: SYELTQPPSVSVSPGQTARITCSGDALPQKYVFWYQQKSGQAPVLVIYEDSKRPSGIPERFSGSSSGTMATLTISGAQVEDEADYYCYSTDRSGNHRVFGGGTKLTVL
notes: Germlined variable domains; human IgG1-TM (L234F, L235E, P331S), lambda; also called 2.7A4OPT IgG1-TM
As for B1, in assay [1], the Kd stood at 1 nM. Also, in assay [1], the koff was found to be 0.0012 s⁻¹. Further, the kon in assay [1] is 1.24e+06 M⁻¹ s⁻¹. The binding result in assay [2], in assay [3], in assay [4] and in assay [5] was “no binding (tested: 100 nM)” in each case.
